# Positions count from the first letter of the chain named.
# T1: recombinant human CD73 protein (human, UniProt P21589 27-549, limits assumed)
# T1 sequence (looked up): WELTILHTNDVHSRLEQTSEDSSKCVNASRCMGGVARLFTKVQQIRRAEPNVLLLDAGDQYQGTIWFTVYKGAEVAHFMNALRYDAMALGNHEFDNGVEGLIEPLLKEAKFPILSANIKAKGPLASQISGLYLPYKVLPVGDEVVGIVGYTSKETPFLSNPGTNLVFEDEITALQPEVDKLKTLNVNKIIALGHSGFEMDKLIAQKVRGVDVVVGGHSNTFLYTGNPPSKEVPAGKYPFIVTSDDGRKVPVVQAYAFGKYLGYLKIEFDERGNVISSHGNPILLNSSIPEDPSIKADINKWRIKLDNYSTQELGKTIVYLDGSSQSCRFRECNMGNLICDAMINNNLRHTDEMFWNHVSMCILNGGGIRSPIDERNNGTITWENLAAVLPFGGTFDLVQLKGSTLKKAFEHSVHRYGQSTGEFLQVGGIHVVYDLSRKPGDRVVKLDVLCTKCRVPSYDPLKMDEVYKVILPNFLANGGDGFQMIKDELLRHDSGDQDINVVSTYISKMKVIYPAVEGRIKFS
# T2: cell-bound CD73 (human, UniProt P21589 27-549)
# T2 sequence (looked up): T1 sequence (looked up)
# T3: non-cell-bound CD73 (human, UniProt P21589 27-549, limits assumed)
# T3 sequence (looked up): T1 sequence (looked up)
# T4: mouse CD73 (mouse, UniProt Q61503 29-551, limits assumed)
# T4 construct: also called murine CD73
# T4 sequence (looked up): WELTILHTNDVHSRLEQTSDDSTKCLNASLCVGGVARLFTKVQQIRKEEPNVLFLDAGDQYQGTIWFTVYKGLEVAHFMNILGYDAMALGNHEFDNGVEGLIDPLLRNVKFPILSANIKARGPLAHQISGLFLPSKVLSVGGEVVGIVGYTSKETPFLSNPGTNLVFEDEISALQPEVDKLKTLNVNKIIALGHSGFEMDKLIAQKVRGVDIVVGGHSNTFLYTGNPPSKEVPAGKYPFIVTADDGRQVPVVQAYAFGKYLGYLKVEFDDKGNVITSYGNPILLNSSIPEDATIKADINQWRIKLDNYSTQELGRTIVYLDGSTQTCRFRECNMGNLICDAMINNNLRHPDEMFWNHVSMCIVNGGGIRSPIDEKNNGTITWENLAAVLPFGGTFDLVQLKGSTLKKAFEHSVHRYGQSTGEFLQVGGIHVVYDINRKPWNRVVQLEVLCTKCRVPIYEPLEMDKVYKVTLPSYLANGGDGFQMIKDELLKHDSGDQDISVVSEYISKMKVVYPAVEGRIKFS
# T5: human CD73-His (human, UniProt P21589 27-549)
# T5 construct: extracellular domain; The SPR analyte is only called 'human CD73-His' (non-covalent dimeric antigen); also called HuCD73 His tagged; HuCD73his20170303
# T5 sequence: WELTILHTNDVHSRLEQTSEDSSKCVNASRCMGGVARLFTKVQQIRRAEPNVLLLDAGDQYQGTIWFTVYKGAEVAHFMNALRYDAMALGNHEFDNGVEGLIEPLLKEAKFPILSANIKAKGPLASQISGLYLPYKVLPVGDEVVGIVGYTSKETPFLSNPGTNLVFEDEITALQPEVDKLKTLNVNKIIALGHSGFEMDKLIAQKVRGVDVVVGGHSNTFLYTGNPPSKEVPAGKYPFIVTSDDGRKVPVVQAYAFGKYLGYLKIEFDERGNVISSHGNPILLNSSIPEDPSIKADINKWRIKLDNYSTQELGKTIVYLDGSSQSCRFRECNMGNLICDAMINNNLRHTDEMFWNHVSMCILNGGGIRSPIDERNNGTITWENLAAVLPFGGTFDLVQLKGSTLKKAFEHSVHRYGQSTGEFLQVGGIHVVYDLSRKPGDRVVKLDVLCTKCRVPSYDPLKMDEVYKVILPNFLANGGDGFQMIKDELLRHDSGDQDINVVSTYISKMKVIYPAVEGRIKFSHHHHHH
# B1: C3 (antibody, human IgG1, kappa, L234A L235A, V domains shown)
# VH: QVQLVQSGAEVKKPGDSVKVSCKASGYTFTTYWMHWVRQAPGQGLEWMGAIYPGLSDTTYSQKFKGKVTMTRDTSTSTVYMKLSSLRSEDTAVYYCARLLDYAMDYWGQGTLVTVSS
# VL: DIQMTQSPSSLSASVGDRVTITCRASQDIRSYLNWHQQKPGKAPKLLIWYTSRLHSGVPSRFSGSGSGTDYTLTISSLQPEDFATYFCQQGETLPWTFGQGTKLEIKR
# notes: Humanized monoclonal antibody; also called anti-CD73 antibody C3
# B2: C4 (antibody, human IgG1, kappa, L234A L235A, V domains shown)
# VH: B1 VH with S61N
# VL: B1 VL
# notes: Humanized monoclonal antibody; also called C04; inventive anti-CD73 antibody C4
# B3: C5 (antibody, human IgG1, kappa, L234A L235A, V domains shown)
# VH: B1 VH with L55N, S61N
# VL: B1 VL with Q79E
# notes: Humanized monoclonal antibody; also called anti-CD73 antibody C5
# B4: C6 (antibody, human IgG1, kappa, L234A L235A, V domains shown)
# VH: B1 VH with L55N, S61N
# VL: B1 VL with S31N, E92N
# notes: Humanized monoclonal antibody; also called anti-CD73 antibody C6
# Target: T1, recombinant human CD73 protein
# Test: cell-based or functional assay
row,Binder,IC90 of inhibition of CD73 enzymatic function (luciferase-based assay) [nM]
1,B1,0.32
2,B2,0.24
3,B3,0.29
4,B4,0.24

# Target: T2, cell-bound CD73
# Test: cell-based or functional assay
row,Binder,"CD73 surface reduction [%] on Colo201 cells, 24 h, flow cytometry [%]"
1,B1,16
2,B2,15
3,B3,19
4,B4,19

# Target: T2, cell-bound CD73
# Test: cell-based or functional assay
# Remark: another data set of the same source
row,Binder,Max. adenosine inhibition [%] in Colo201 cells [%]
1,B1,88
2,B2,88
3,B3,87
4,B4,88

# Target: T2, cell-bound CD73
# Test: cell-based or functional assay
# Remark: another data set of the same source
Binder,"CD8 T cell proliferation [% of control], Donor A, 1 nM antibody [%]","CD8 T cell proliferation [% of control], Donor B, 1 nM antibody [%]","CD8 T cell proliferation [% of control], Donor C, 1 nM antibody [%]","CD8 T cell proliferation [% of control], Donor D, 1 nM antibody [%]","CD8 T cell proliferation [% of control], Donor E, 1 nM antibody [%]","CD8 T cell proliferation [% of control], Donor F, 1 nM antibody [%]"
B1,103,80.2,116,99.3,101,91.3
B2,104,70.3,111,98.5,100,92.6
B3,103,80.3,101,99.3,100,86
B4,102,65.4,88.3,99.6,100,91.1

# Target: T2, cell-bound CD73
# Test: cell-based or functional assay
# Remark: another data set of the same source
Binder,"IFNγ release [fold change over control], Donor A, 1 nM antibody [fold]","IFNγ release [fold change over control], Donor B, 1 nM antibody [fold]","IFNγ release [fold change over control], Donor C, 1 nM antibody [fold]","IFNγ release [fold change over control], Donor D, 1 nM antibody [fold]","IFNγ release [fold change over control], Donor E, 1 nM antibody [fold]","IFNγ release [fold change over control], Donor F, 1 nM antibody [fold]"
B1,19.9,7.7,31.9,19,14.2,6.7
B2,20.2,8.7,35.2,13.7,14.1,7.1
B3,24.5,11.3,59.3,22.9,12.4,5.8
B4,24.3,12.9,55.5,25.8,14,10.3

# Target: T2, cell-bound CD73
# Test: cell-based or functional assay
# Remark: another data set of the same source
row,Binder,"% of max. adenosine inhibition, washed Colo-201 cells [%]"
1,B1,81
2,B2,82
3,B3,82
4,B4,81

# Target: T3, non-cell-bound CD73
# Test: cell-based or functional assay
row,Binder,"% of max. adenosine inhibition, Colo-201 culture supernatant [%]"
1,B1,82
2,B2,81
3,B3,80
4,B4,78

# Target: T4, mouse CD73
# Test: SPR, mouse CD73 compared with human CD73 (reference)
row,Binder,fold higher binding to human CD73 than to mouse CD73 [fold]
1,B1,117
2,B2,120
3,B3,163
4,B4,58

# Target: T5, human CD73-His
# Test: SPR (ProteOn XPR36), antibody captured on Protein A/G, dimeric human CD73-His as analyte, avidity format, 1:1 Langmuir fit
# Experimental: For the avidity format, the experiment was performed on a Bio-Rad ProteOn XPR36 instrument. Antibodies were captured via Protein A/G and the non-covalent dimeric antigens were flowed over the captured surface. The running buffer for this experiment and all dilutions were prepared in PBS-T-EDTA. The GLM sensor chip was normalized and pre-conditioned as per the manufacturer's recommendations. The sensor chip was activated with an equal mixture of EDC/s-NHS in the horizontal direction for 300 s at a flow rate of 30 μL/min and immobilized with recombinant Protein A/G (50 μg/ml in 10 mM acetate pH 4.5) in the horizontal direction for 300 s at a flow rate of 30 μL/min resulting in about 5000 RU of Protein A/G on the surface. The sensor chip was deactivated with 1M ethanolamine-HCl in the horizontal direction for 300 s at a flow rate of 30 μL/min. The sensor chip was regenerated with 18 s of 0.85% phosphoric acid at a flow rate of 100 μL/min 2 times horizontally and 2 times vertically.
# About 300 RU of antibody was captured on the Protein A/G surface vertically for 60 s at a flow rate of 30 μL/min. The capture surface was stabilized by injecting PBS-T-EDTA for 60 s at a flowrate of 100 μL/min horizontally. The analyte (human CD73-His) was injected horizontally over the captured antibody for 600 s at a flow rate of 30 μL/min with a dissociation of 1200 s. The concentrations of human CD73-His were 0 nM, 3.125 nM, 6.25 nM, 12.5 nM, 25 nM and 50 nM. The surface was regenerated by injecting 0.85% phosphoric acid for 18 s at a flow rate of 100 μL/min one time horizontally and one time vertically.
# The interspot (interactions with sensor surface) and blank (PBS-T-EDTA or 0 nM analyte) were subtracted from the raw data.
row,Binder,Kd [nM]
1,B1,0.072
2,B2,0.074
3,B3,0.049
4,B4,0.096

# Source: US20190352420A1 (Boehringer Ingelheim, published 2019)
